Experimental data reported in patent US20220281969A1 (ANTLERA THERAPEUTICS, published 2022).

Biological target: T1, recombinant human LRP6-Fc chimera (human, UniProt O75581 20-1370)
T1 construct: extracellular domain; also called human LRP6 chimera; not shown: Fc part of the chimera
T1 sequence (looked up): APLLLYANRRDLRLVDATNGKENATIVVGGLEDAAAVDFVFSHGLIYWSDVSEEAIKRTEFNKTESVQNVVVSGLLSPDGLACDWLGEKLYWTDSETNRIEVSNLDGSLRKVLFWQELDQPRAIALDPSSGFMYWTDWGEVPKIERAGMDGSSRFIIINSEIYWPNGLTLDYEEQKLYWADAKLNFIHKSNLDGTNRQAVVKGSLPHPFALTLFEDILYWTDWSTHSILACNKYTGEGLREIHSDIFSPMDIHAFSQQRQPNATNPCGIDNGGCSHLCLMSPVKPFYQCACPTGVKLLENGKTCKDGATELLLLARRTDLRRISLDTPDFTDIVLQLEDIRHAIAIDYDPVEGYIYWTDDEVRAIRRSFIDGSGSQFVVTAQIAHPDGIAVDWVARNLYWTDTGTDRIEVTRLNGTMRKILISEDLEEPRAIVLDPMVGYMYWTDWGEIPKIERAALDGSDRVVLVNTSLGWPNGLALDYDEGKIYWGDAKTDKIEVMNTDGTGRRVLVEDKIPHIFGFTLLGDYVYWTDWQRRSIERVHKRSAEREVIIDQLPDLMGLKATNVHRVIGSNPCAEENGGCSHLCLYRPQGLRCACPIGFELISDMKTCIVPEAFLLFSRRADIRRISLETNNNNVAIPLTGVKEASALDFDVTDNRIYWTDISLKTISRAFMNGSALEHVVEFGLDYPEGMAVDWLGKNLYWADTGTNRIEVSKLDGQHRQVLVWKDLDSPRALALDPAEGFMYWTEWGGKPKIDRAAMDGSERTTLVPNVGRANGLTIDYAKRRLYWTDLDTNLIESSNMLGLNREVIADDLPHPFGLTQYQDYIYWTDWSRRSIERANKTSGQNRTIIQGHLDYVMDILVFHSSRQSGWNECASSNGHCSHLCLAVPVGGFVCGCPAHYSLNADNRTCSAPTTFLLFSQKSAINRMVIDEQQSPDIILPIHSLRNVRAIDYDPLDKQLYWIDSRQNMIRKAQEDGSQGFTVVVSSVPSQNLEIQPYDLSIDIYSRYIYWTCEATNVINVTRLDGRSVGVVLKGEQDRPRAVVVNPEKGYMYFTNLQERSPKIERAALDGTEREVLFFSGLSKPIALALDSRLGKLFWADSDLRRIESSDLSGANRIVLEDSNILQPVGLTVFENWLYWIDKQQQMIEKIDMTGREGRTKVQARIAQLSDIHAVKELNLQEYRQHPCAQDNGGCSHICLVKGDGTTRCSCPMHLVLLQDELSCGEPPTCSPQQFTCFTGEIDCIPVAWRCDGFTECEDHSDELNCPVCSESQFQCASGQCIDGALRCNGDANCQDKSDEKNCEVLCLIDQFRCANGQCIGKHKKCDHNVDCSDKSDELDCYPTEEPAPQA
Assay: single-point ELISA, IgG1 on coated antigen
Description: FIGS. 1a and 1b show LRP six antibodies. (A) The amino acid sequences of the complementarity determining regions (CDR) of the heavy (H) and the light (L) chains are presented. The antibodies were grouped into unique epitopes as determined by competitive ELISAs. (B) Single-point ELISAs were performed on 96-well Maxisorb immune plates coated with the […] of mouse LRP5, mouse LRP6 and human LRP6 chimeras. The plates were incubated with the purified Fab or IgG1 at the concentrations indicated followed by incubation with horseradish peroxidase (HRP)-conjugated anti-kappa antibody. The wells were washed eight times followed by incubation with 3,3′,5,5′-tetramethylbenzidine/H₂O₂ peroxidase (TMB) substrate for 5-10 min. The reaction was stopped by adding one M H₃PO₄ and the absorbance was measured spectrometrically at 450 nm in a microtiter plate reader.
The full length IgG1s were purified and a single-point ELISA was done to determine the specificity of the antibodies. […] A multipoint competitive ELISA was used to determine the relative affinities of the antibodies to the recombinant antigen.

B1: LRP6-E3 IgG1 antibody (antibody, V domains shown)
VH: EVQLVESGGGLVQPGGSLRLSCAASGFNLYYYSMHWVRQAPGKGLEWVASIYSSYGYTYYADSVKGRFTISADTSKNTAYLQMNSLRAEDTAVYYCARYAGYYYYPWAYYGWPFSGLDYWGQGTLVTVSS
VL: DIQMTQSPSSLSASVGDRVTITCRASQSVSSAVAWYQQKPGKAPKLLIYSASSLYSGVPSRFSGSRSGTDFTLTISSLQPEDFATYYCQQAGSAPYHLITFGQGTKVEIKR
notes: Tested as purified full length IgG1
binding result: no binding
